{"source": "patent US20210063414A1", "about": "“METHODS FOR PREVENTING AND/OR TREATING BONE LOSS CONDITIONS BY MODULATING IRISIN” (Dana-Farber Cancer Institute, Inc., priority 2018, published 2021)", "molecules": {"B1": {"name": "irisin: secreted cleaved form of FNDC5; recombinant human/mouse irisin with C-terminal his tag produced in HEK293 cells (protein)", "chain": "DSPSAPVNVTVRHLKANSAVVSWDVLEDEVVIGFAISQQKKDVRMLRFIQEVNTTTRSCALWDLEEDTEYIVHVQAISIQGQSPASEPVLFKTPREAEKMASKNKDEVTMKE", "modifications": "left off: small tags and cut ends", "notes": "secreted cleaved form of FNDC5; recombinant human/mouse irisin with C-terminal his tag produced in HEK293 cells"}}, "assay_in_all_cases": "Crosslinking/co-immunoprecipitation/mass spectrometry (TMT quantitative proteomics) to identify irisin receptors", "type_in_all_cases": "binding", "key": {"[1]": {"molecular_target": "T1, MLO-Y4 cell surface proteins (Mus musculus, UniProt P08249)", "T1 construct": "endogenous in cells; host or cells: MLO-Y4", "T1 sequence (P08249 25-338)": "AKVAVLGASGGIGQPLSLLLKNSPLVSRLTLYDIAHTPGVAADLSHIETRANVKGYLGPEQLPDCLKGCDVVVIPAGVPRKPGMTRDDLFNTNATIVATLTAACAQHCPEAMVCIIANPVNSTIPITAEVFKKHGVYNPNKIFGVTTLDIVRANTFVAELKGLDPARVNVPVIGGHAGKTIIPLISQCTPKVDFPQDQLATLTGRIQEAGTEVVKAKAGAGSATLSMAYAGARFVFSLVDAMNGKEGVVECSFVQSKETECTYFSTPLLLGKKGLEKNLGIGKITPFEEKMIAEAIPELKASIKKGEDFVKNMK", "conditions": "co-precipitated protein Mdh2 (MDHM_MOUSE)", "summary_of_the_method": "(§1)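 Mouse MLO-Y4 cells were switched to serum-free FreeStyle medium for 4 h, chilled, then exposed to 10 nM His-tagged irisin (or adipsin as control) for 20 min. Cells were crosslinked with 1.5 mM DTSSP (30 min, ice), and bound proteins were pulled down on Ni-NTA and eluted with 250 mM imidazole. Eluates were separated by SDS-PAGE, trypsin-digested in gel, TMT 6-plex labelled and quantified by MS3-based LC-MS/MS on an Orbitrap Fusion Lumos.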"}, "[2]": {"molecular_target": "T2, MLO-Y4 cell surface proteins (Mus musculus, UniProt P55292)", "T2 construct": "endogenous in cells; host or cells: MLO-Y4", "T2 sequence (P55292 136-902)": "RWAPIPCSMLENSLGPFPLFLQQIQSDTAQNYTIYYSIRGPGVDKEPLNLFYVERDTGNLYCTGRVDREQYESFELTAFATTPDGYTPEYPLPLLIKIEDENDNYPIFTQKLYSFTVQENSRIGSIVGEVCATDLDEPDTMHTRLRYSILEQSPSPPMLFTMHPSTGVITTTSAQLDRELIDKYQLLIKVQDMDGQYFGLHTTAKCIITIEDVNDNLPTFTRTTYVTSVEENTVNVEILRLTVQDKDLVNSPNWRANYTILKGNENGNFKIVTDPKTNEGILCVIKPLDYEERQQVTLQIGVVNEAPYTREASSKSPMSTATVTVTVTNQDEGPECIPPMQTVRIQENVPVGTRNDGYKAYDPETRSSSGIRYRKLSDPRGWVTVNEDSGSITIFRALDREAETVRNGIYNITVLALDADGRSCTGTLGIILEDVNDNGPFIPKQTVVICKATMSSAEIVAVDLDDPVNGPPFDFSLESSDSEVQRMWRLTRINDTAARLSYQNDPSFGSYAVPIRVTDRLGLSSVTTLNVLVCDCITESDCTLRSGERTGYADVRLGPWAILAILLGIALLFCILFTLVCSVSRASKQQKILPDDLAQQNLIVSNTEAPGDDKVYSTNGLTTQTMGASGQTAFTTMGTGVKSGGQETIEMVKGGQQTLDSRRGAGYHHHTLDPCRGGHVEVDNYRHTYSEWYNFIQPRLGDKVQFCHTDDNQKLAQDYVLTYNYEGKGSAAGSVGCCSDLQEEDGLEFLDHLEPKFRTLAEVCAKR", "conditions": "co-precipitated protein Dsc2 (DSC2_MOUSE)", "summary_of_the_method": "as §1"}, "[3]": {"molecular_target": "T3, MLO-Y4 cell surface proteins (Mus musculus, UniProt P62960)", "T3 construct": "endogenous in cells; host or cells: MLO-Y4", "T3 sequence (P62960 whole entry)": "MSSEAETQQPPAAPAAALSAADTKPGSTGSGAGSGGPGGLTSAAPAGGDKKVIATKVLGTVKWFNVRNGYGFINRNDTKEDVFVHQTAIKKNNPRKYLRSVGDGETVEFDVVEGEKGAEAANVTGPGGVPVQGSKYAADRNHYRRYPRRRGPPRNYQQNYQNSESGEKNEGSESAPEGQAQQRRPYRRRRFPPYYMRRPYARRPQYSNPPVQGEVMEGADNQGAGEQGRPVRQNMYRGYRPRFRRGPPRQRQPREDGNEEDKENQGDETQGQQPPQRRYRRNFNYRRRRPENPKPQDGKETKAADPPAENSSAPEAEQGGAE", "conditions": "co-precipitated protein Ybx1 (YBOX1_MOUSE)", "summary_of_the_method": "as §1"}, "[4]": {"molecular_target": "T4, MLO-Y4 cell surface proteins (Mus musculus, UniProt Q8VHN7)", "T4 construct": "endogenous in cells; host or cells: MLO-Y4", "conditions": "co-precipitated protein Gpr98 (GPR98_MOUSE)", "summary_of_the_method": "as §1"}}, "data": [{"molecule": "B1", "values": [{"measurement": "TMT signal-to-noise ratio", "setting": "[1]", "result": 858.89}, {"measurement": "irisin/adipsin TMT signal-to-noise ratio", "setting": "[1]", "result": 0.336}, {"measurement": "TMT signal-to-noise ratio", "setting": "[2]", "result": 3.51}, {"measurement": "irisin/adipsin TMT signal-to-noise ratio", "setting": "[2]", "result": 0.037}, {"measurement": "irisin/adipsin TMT signal-to-noise ratio", "setting": "[3]", "result": 0.277}, {"measurement": "TMT signal-to-noise ratio", "setting": "[4]", "result": 249.388}, {"measurement": "irisin/adipsin TMT signal-to-noise ratio", "setting": "[4]", "result": 0.403}]}]}
